Literature values in paper PMC6502704.
Where two headings read alike, the source gives them in different places. Each block holds one substance with its values, some of them ahead of it.

Legend:
[1] = target: BMAL1 TAD (Mus musculus) (UniProt Q9WTL8)
[2] = target: BMAL1 TAD (Mus musculus) (UniProt Q9WTL8); remark: listed apart in the source
[3] = target: BMAL1 577-625 (Mus musculus) (UniProt Q9WTL8)
[4] = target: BMAL1 577-625 (Mus musculus) (UniProt Q9WTL8); remark: listed apart in the source
[5] = target: BMAL1 490-625 (Mus musculus) (UniProt Q9WTL8)

Kd [1]: 2 µM
Substance: CBP KIX (from UniProt P45481)

Kd [2]: 10 µM
Substance: CRY1 (from UniProt P97784)

Kd [3]: 10 µM
Substance: CRY1 CCT (from UniProt P97784)

Kd [4]: 10 µM
Kd [5]: 10 µM
Substance: CRY2 CCT (from UniProt Q9R194)
